Twelve molecules from patent publication US20160083465A1 (AVEO PHARMACEUTICALS, published 2016) can be followed below.

Changes are numbered by the printed parent chain.

As usually defined, the Kd is the free concentration of one partner at which half of the binding sites on the other are occupied at equilibrium, for simple one-to-one binding. Read a low Kd as tighter binding. One may read the koff as the rate constant with which the complex falls apart. Low values mean slow dissociation, high ones fast dissociation. Broadly, the kon is the second-order rate constant of association. Lower therefore signals slow association.

For test [1], the target named is T1, mouse IgG1 Fc-mature human GDF15 fusion protein (mFc-rhGDF15) (mouse; human).
T1 construct: Made in CHOK1SV cells, purified by Protein A and size exclusion; also called mouse Fc fused to human GDF15
T1 chain: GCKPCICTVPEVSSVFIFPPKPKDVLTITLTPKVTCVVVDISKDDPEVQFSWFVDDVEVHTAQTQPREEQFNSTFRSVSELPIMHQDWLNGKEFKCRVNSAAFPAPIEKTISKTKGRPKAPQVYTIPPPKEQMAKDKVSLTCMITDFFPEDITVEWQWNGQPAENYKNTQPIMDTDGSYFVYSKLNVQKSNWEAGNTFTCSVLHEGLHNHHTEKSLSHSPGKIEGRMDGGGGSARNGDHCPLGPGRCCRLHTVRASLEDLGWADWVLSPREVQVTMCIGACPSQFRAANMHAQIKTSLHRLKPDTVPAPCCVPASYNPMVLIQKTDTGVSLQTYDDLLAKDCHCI
The test is described as follows: SPR Biacore T100, 37 C, antibody from supernatant captured by anti-human IgG Fc, antigen in solution. A general note: SPR reads the build-up and loss of mass on a sensor chip optically.

The target in test [2] is T1, mouse IgG1 Fc-mature human GDF15 fusion …. The test is described as follows: SPR Biacore T100, 37 C, purified antibody captured by anti-human IgG Fc, antigen in solution. Here is the method:
(§1) Goat anti-human IgGs (Fc fragment specific, Jackson ImmunoResearch, West Grove, Pa.) were immobilized on carboxymethylated dextran CM4 sensor chips by amine coupling, according to a standard protocol. Analyses were performed at 37° C. using PBS containing 0.05% surfactant P20 as running buffer. The antibodies were captured in individual flow cells at a flow rate of 10 μL/minute. Injection time was varied for each antibody to yield an Rmax between 30 and 60 RU. […] The dissociation phase was monitored for up to 1200 seconds. The surface was then regenerated with two 60-second injections of 10 mM Glycine-HCl, pH 2.25, at a flow rate of 30 μL/minute.
(§2) Kinetic parameters were determined using the kinetic function of the BIAevaluation software (GE Healthcare) with double reference subtraction.

The target is the same in test [3]. The test is described as follows: SPR Biacore T100, 37 C, antibody captured by anti-mouse IgG, antigen in solution. As to the method: as §1, with “Rabbit anti-mouse” for “Goat anti-human”, “(GE Healthcare)” for “(Fc fragment specific, Jackson ImmunoResearch, West Grove, Pa.)”, “chips (GE Healthcare)” for “chips”, “RU. 250 μg/mL mouse Fc (Jackson ImmunoResearch, West Grove, Pa.) was injected at 30 μL/minute for 120 seconds to block non-specific binding of capture antibodies to mouse Fc portion of the recombinant GDF15 protein when needed.” for “RU.”, “1500” for “1200”, “1.7,” for “2.25,”
as §2

B1: Hu01G06-46 (antibody, human IgG1, kappa)
heavy: not shown
light: DIQMTQSPSSLSASVGDRVTITCRTSENLHNYLAWYQQKPGKSPKLLVYDAKTLADGVPSRFSGSGSGTDYTLTISSLQPEDFATYYCQHFWSSPYTFGQGTKLEIKRTVAAPSVFIFPPSDEQLKSGTASVVCLLNNFYPREAKVQWKVDNALQSGNSQESVTEQDSKDSTYSLSSTLTLSKADYEKHKVYACEVTHQGLSSPVTKSFNRGEC
notes: Humanized, human IgG1 kappa
In the case of B1, in test [1], binding was characterised by a dissociation constant (Kd) of 0.1 nM, the koff came to 0.00043 s⁻¹ and the kon was 4.1e+06 M⁻¹ s⁻¹. Besides, in test [2], binding was put at a Kd of 0.11 nM, the koff worked out at 0.00038 s⁻¹ and the kon was 3.6e+06 M⁻¹ s⁻¹.

B2: Hu01G06-114 (antibody, human IgG1, kappa)
heavy: not shown
light: B1 light with S43A, V48I
notes: Humanized, human IgG1 kappa; tested in supernatant
In test [1], B2 yielded a Kd of 0.13 nM, a koff of 0.00054 s⁻¹ and a kon of 4.5e+06 M⁻¹ s⁻¹.

B3: Hu01G06-52 (antibody, human IgG1, kappa)
heavy: not shown
light: B1 light
notes: Humanized, human IgG1 kappa
Take B3: in test [1], the Kd stood at 0.089 nM, the koff was 0.00044 s⁻¹ and the kon was found to be 5e+06 M⁻¹ s⁻¹. Besides, in test [2], the affinity, expressed as Kd, was 0.099 nM; the koff was determined as 0.00036 s⁻¹; the kon came to 3.6e+06 M⁻¹ s⁻¹.

B4: Hu06C11-27 (antibody, human IgG1, kappa)
heavy: not shown
light: DIQMTQSPSSLSASVGDRVTITCKASQNVGTNVAWFQQKPGKAPKSLIYSASYRYSGVPSRFSGSGSGTDFTLTISSLQPEDFATYYCQQYNNYPLTFGQGTKLEIKRTVAAPSVFIFPPSDEQLKSGTASVVCLLNNFYPREAKVQWKVDNALQSGNSQESVTEQDSKDSTYSLSSTLTLSKADYEKHKVYACEVTHQGLSSPVTKSFNRGEC
notes: Humanized, human IgG1 kappa
In test [2], B4 came in with an equilibrium dissociation constant (Kd) of 0.18 nM, a koff of 0.00082 s⁻¹ and a kon of 4.7e+06 M⁻¹ s⁻¹.

B5: Hu14F11-39 (antibody, human IgG1, kappa)
heavy: not shown
light: B4 light with A43S, S46A, A51P, Y87F, N93S, L96H
notes: Humanized, human IgG1 kappa
With B5, in test [2], the affinity, expressed as Kd, was 0.066 nM; the off-rate constant (koff) amounted to 0.00019 s⁻¹; the kon was determined as 3e+06 M⁻¹ s⁻¹.

B6: Hu06C11-30 (antibody, human IgG1, kappa)
heavy: not shown
light: B4 light
notes: Humanized, human IgG1 kappa
In test [2], B6 gave a dissociation constant Kd of 0.18 nM, an off-rate (koff) of 0.00087 s⁻¹ and a kon of 4.8e+06 M⁻¹ s⁻¹.

B7: Hu14F11-47 (antibody, human IgG1, kappa)
heavy: not shown
light: B4 light with A43S, S46A, A51P, Y87F, N93S, L96H
notes: Humanized, human IgG1 kappa
In test [2], B7 came in with an equilibrium dissociation constant (Kd) of 0.065 nM, a koff of 0.00018 s⁻¹ and a kon of 3.3e+06 M⁻¹ s⁻¹.

B8: 08G01 (antibody, mouse IgG2b, kappa)
heavy: EVLLQQSGPEVVKPGASVKIPCKASGYTFTDYNMDWVKQSHGKSLEWIGEINPNNGGTFYNQKFKGKATLTVDKSSSTAYMELRSLTSEDTAVYYCAREAITTVGAMDYWGQGTSVTVSSAKTTPPSVYPLAPGCGDTTGSSVTLGCLVKGYFPESVTVTWNSGSLSSSVHTFPALLQSGLYTMSSSVTVPSSTWPSQTVTCSVAHPASSTTVDKKLEPSGPISTINPCPPCKECHKCPAPNLEGGPSVFIFPPNIKDVLMISLTPKVTCVVVDVSEDDPDVQISWFVNNVEVHTAQTQTHREDYNSTIRVVSTLPIQHQDWMSGKEFKCKVNNKDLPSPIERTISKIKGLVRAPQVYILPPPAEQLSRKDVSLTCLVVGFNPGDISVEWTSNGHTEENYKDTAPVLDSDGSYFIYSKLNMKTSKWEKTDSFSCNVRHEGLKNYYLKKTISRSPGK
light: DIQMTQSPASLSASVGETVTITCRASGNIHNYLAWYQQKQGKSPQLLVYNAKTLADGVPSRFSGSGSGTQYSLKINSLQPEDFGSYYCQHFWSSPYTFGGGTKLEIKRADAAPTVSIFPPSSEQLTSGGASVVCFLNNFYPKDINVKWKIDGSERQNGVLNSWTDQDSKDSTYSMSSTLTLTKDEYERHNSYTCEATHKTSTSPIVKSFNRNEC
notes: Murine monoclonal from hybridoma, IgG2b kappa; also called antibody 08G01
With B8, in test [3], binding was characterised by a dissociation constant (Kd) of 0.19 nM, the dissociation rate constant (koff) is 0.0011 s⁻¹ and the on-rate (kon) is 6e+06 M⁻¹ s⁻¹.

B9: 17B11 (antibody, mouse IgG1, kappa)
heavy: QVTLKESGPGILQPSQTLSLTCSFSGFSLSTSGMGVSWIRQPSGKGLEWLAHNDWDDDKRYKSSLKSRLTISKDTSRNQVFLKITSVDTADTATYYCARRVGGLEGYFDYWGQGTTLTVSSAKTTPPSVYPLAPGSAAQTNSMVTLGCLVKGYFPEPVTVTWNSGSLSSGVHTFPAVLQSDLYTLSSSVTVPSSTWPSETVTCNVAHPASSTKVDKKIVPRDCGCKPCICTVPEVSSVFIFPPKPKDVLTITLTPKVTCVVVDISKDDPEVQFSWFVDDVEVHTAQTQPREEQFNSTFRSVSELPIMHQDWLNGKEFKCRVNSAAFPAPIEKTISKTKGRPKAPQVYTIPPPKEQMAKDKVSLTCMITDFFPEDITVEWQWNGQPAENYKNTQPIMDTDGSYFVYSKLNVQKSNWEAGNTFTCSVLHEGLHNHHTEKSLSHSPGK
light: DIVLTQSPASLAVSLGQRATISCRASQSVSTSRFSYMHWFQQKPGQAPKLLIKYASNLESGVPARFSGSGSGTDFTLNIHPVEGEDTATYYCQHSWEIPYTFGGGTKLEIKRADAAPTVSIFPPSSEQLTSGGASVVCFLNNFYPKDINVKWKIDGSERQNGVLNSWTDQDSKDSTYSMSSTLTLTKDEYERHNSYTCEATHKTSTSPIVKSFNRNEC
notes: Murine monoclonal from hybridoma, IgG1 kappa; also called antibody 17B11
In test [3], B9 came in with a Kd of 0.14 nM, an off-rate constant (koff) of 0.00051 s⁻¹ and an association rate constant (kon) of 3.7e+06 M⁻¹ s⁻¹.

B10: Hu06C11-1 (antibody, human IgG1, kappa)
heavy: not shown
light: DIVMTQSQKFMSTSVGDRVSVTCKASQNVGTNVAWFQQKPGQSPKALIYSASYRYSGVPDRFTGSGSGTDFILTISNVQSEDLAEYFCQQYNNYPLTFGAGTKLELKRTVAAPSVFIFPPSDEQLKSGTASVVCLLNNFYPREAKVQWKVDNALQSGNSQESVTEQDSKDSTYSLSSTLTLSKADYEKHKVYACEVTHQGLSSPVTKSFNRGEC
notes: Mouse variable regions, human IgG1 and kappa constant regions; also called Chimeric 06C11
For the molecule B10, in test [2], the Kd is 0.18 nM, the koff was determined as 0.00084 s⁻¹ and the on-rate constant (kon) was found to be 5.3e+06 M⁻¹ s⁻¹.

B11: 04F08 (antibody, mouse IgG1, kappa)
heavy: QVTLKESGPGILQPSQTLSLTCSFSGFSLSTYGMGVTWIRQPSGKGLEWLAHIYWDDDKRYNPSLKSRLTISKDTSNNQVFLKITSVDTADTATYYCAQTGYSNLFAYWGQGTLVTVSAAKTTPPSVYPLAPGSAAQTNSMVTLGCLVKGYFPEPVTVTWNSGSLSSGVHTFPAVLQSDLYTLSSSVTVPSSTWPSETVTCNVAHPASSTKVDKKIVPRDCGCKPCICTVPEVSSVFIFPPKPKDVLTITLTPKVTCVVVDISKDDPEVQFSWFVDDVEVHTAQTQPREEQFNSTFRSVSELPIMHQDWLNGKEFKCRVNSAAFPAPIEKTISKTKGRPKAPQVYTIPPPKEQMAKDKVSLTCMITDFFPEDITVEWQWNGQPAENYKNTQPIMDTDGSYFVYSKLNVQKSNWEAGNTFTCSVLHEGLHNHHTEKSLSHSPGK
light: DIVMTQSQKFMSTSVGDRVSVTCKASQNVGTNVAWYQQKLGQSPKTLIYSASYRYSGVPDRFTGSGSGTDFTLTISNVQSEDLAEYFCQQYNSYPYTFGGGTKLEIKRADAAPTVSIFPPSSEQLTSGGASVVCFLNNFYPKDINVKWKIDGSERQNGVLNSWTDQDSKDSTYSMSSTLTLTKDEYERHNSYTCEATHKTSTSPIVKSFNRNEC
notes: Murine monoclonal from hybridoma, IgG1 kappa; also called antibody 04F08
Take B11: in test [3], the Kd is 0.19 nM, the koff is 0.00064 s⁻¹ and the kon was 3.6e+06 M⁻¹ s⁻¹.

B12: Hu01G06-1 (antibody, human IgG1, kappa)
heavy: not shown
light: DIQMTQSPASLSASVGETVTITCRTSENLHNYLAWYQQKQGKSPQLLVYDAKTLADGVPSRFSGSGSGTQYSLKINSLQPEDFGSYYCQHFWSSPYTFGGGTKLEIKRTVAAPSVFIFPPSDEQLKSGTASVVCLLNNFYPREAKVQWKVDNALQSGNSQESVTEQDSKDSTYSLSSTLTLSKADYEKHKVYACEVTHQGLSSPVTKSFNRGEC
notes: Mouse variable regions, human IgG1 and kappa constant regions; also called Chimeric 01G06; chimeric 01G06 (Hu01G06-1)
As for B12, in test [1], binding was put at a Kd of 0.14 nM, the koff was 0.00071 s⁻¹ and the kon amounted to 4.9e+06 M⁻¹ s⁻¹. Further, in test [2], the Kd came out at 0.16 nM, the off-rate (koff) turned out to be 0.00064 s⁻¹ and the association rate constant (kon) worked out at 4.2e+06 M⁻¹ s⁻¹.
